Test results from patent JP2020002075A (dated 2020).

T1: ヒトポドプラニン (ヒトポドプラニン提示CHO細胞, CHO-hPDPN) (human, UniProt Q86YL7 23-162)
T1 construct: whole, on cells
T1 sequence (looked up): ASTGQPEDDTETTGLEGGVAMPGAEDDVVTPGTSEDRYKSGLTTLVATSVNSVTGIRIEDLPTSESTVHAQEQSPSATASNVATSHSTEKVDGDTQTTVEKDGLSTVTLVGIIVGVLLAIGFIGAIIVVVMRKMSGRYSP

T2: ラットポドプラニン (ラットポドプラニン提示CHO細胞, CHO-rPDPN) (rat, UniProt Q64294 23-166)
T2 construct: whole, on cells
T2 sequence (looked up): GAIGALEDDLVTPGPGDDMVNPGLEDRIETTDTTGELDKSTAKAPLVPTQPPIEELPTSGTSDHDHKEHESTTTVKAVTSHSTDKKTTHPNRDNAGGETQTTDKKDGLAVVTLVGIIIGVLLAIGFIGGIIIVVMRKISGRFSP


How the values were obtained:
[1] = target: T1, ヒトポドプラニン (ヒトポドプラニン提示CHO細胞, CHO-hPDPN); assay: flow cytometry on CHO-hPDPN, fit f(x)=a*x/(x+Kd)
[2] = target: T2, ラットポドプラニン (ラットポドプラニン提示CHO細胞, CHO-rPDPN); assay: flow cytometry on CHO-rPDPN, fit f(x)=a*x/(x+Kd)
[3] = target: T3, ポドプラニン (ポドプラニン提示CHO細胞, 種の記載なし); assay: flow cytometry; cells and species not named at this place
T3 construct: whole, on cells

Row | Kd [1] | Kd [2] | Kd [3] | Binder
1 | 6.3 nM | 108 nM | 108 nM | clone 1 (第一世代交差性一本鎖可変領域断片) (scFv, From the Hu2LPMab-16 scFv library; also called クローン1; 第一世代交差性抗体; not shown: C-terminal FLAG tag and His tag) scFv: EVQLKESGGGLVQSGGSLRLSCAASGFSLTDYGVNWVRQAPGKGLEWVGVIWGGGNTYYNSALKSRFTISKDNSKNTLYLQMNSLRAEDTAVYYCAKHRGAWGQGTLVTVSAAGGGGSGGGGSGGGGSDIVMTQSPSTLAVSLGEKATINCKSSKSLLNSGNQKNYLIWYQQKPGQPPKLLIYGASTRESGVPDRFSGSVSGTDFTLTISSLQAEDLAVYYCQNDHTYPLTFGQGTKVEIKRTV
2 | 6.5 nM | 500 nM | – | clone 2 (scFv, From the Hu2LPMab-16 scFv library; also called クローン2; not shown: C-terminal FLAG tag and His tag) scFv: EVQLKESGGGLVQPGGSLRLSCAASGFSLTDYGVNWVRQAPGKGLEWVGVIWGGGNTYYNSALKSRFTISKDNSKNTLYLQMNSLRAEDTAVYYCAKHRGAWGQGTLVTVSAAGGGGSGGGGSGGGGSDIVMTQSPSNLAVSLGEKATINCKSSQSLLNSGNQKNYLNWYQQKPGQPPKLLIYRASTRESGVPDRFSGSVSGTDFTLTISSLQAEDLAVYYCQNDHTYPLIFGQGTKVEIKRTV
